The RNAGym collection of RNA variant scans (doi:10.1101/gr.219683.116)

B1: mRNA-splicing (parent)
chain: AGUUGCUGCUGGGAGCUCCAGCACAGUGAAAUGGACAGAAGGGCAGAGCAA

Variants of: B1
Assay: exon inclusion enrichment index; higher = more inclusion; WT1 exon 5 minigene, HEK293

| Variant | exon inclusion enrichment index |
| --- | --- |
| G5A C6G U7G C9A C18U C19G | 0.00111 |
| G5A C6G U7G C9A C18U C19U | 0.00102 |
| G5A C6G U7G C9A C18U C19A | 0.00106 |
| G5A C6G U7G C9A G11A G12U | 0.000779 |
| G5A C6G U7G C9A G11A G12C | 0.00102 |
| G5A C6G U7G C9A G11A G12A | 0.00145 |
| G5A C6G U7G C9A G33C G34C | 0.0007 |
| G5A C6G U7G C9A G33C G34A | 0.000739 |
| G5A C6G U7G C9A G33C G34U | 0.00222 |
| G5A C6G U7G C9A G41A G42C | 0.0072 |
| G5A C6G U7G C9A G41A G42A | 0.0013 |
| G5A C6G U7G C9A G41A G42U | 0.00291 |
| G5A C6G U7G C9A G26A U27G | 0.00208 |
| G5A C6G U7G C9A G26A U27A | 0.00661 |
| G5A C6G U7G C9A G26A U27C | 0.0139 |
| G5A C6G U7G C9A A37U G38A | 0.00155 |
| G5A C6G U7G C9A A37U G38U | 0.00105 |
| G5A C6G U7G C9A A37U G38C | 0.00236 |
| G5A C6G U7G C9A C24G A25U | 0.00102 |
| G5A C6G U7G C9A C24G A25G | 0.00108 |
| G5A C6G U7G C9A C24G A25C | 0.00471 |

| Variant | exon inclusion enrichment index |
| --- | --- |
| G5A C6G U7G C9A C44A A45G | 0.0102 |
| G5A C6G U7G C9A C44A A45U | 0.0154 |
| G5A C6G U7G C9A C44A A45C | 0.00399 |
| G5A C6G U7G C9A A45C G46C | 0.00399 |
| G5A C6G U7G C9A A45C G46A | 0.000901 |
| G5A C6G U7G C9A A45C G46U | 0.0014 |
| G5A C6G U7G C9A G21A C22G | 0.00502 |
| G5A C6G U7G C9A G21A C22U | 0.00087 |
| G5A C6G U7G C9A G21A C22A | 0.000944 |
| G5A C6G U7G C9A A37C G38C | 0.00112 |
| G5A C6G U7G C9A A37C G38A | 0.00086 |
| G5A C6G U7G C9A A37C G38U | 0.000751 |
| G5A C6G U7G C9A G42U G43A | 0.00514 |
| G5A C6G U7G C9A G42U G43U | 0.00686 |
| G5A C6G U7G C9A G42U G43C | 0.0126 |
| G5A C6G U7G C9A G42A G43A | 0.0419 |
| G5A C6G U7G C9A G42A G43C | 0.0943 |
| G5A C6G U7G C9A G42A G43U | 0.0457 |
| G5A C6G U7G C9A A47U G48U | 0.000738 |
| G5A C6G U7G C9A A47U G48C | 0.000966 |
| G5A C6G U7G C9A A47U G48A | 0.00057 |

| Variant | exon inclusion enrichment index |
| --- | --- |
| G5A C6G U7G C9A G34A A35U | 0.00125 |
| G5A C6G U7G C9A G34A A35C | 0.00134 |
| G5A C6G U7G C9A G34A A35G | 0.00114 |
| G5A C6G U7G C9A C24U A25U | 0.000784 |
| G5A C6G U7G C9A C24U A25C | 0.0183 |
| G5A C6G U7G C9A C24U A25G | 0.00148 |
| G5A C6G U7G C9A C36G A37C | 0.00103 |
| G5A C6G U7G C9A C36G A37G | 0.00376 |
| G5A C6G U7G C9A C36G A37U | 0.00107 |
| G5A C6G U7G C9A G26C U27A | 0.00255 |
| G5A C6G U7G C9A G26C U27C | 0.0114 |
| G5A C6G U7G C9A G26C U27G | 0.0205 |
| G5A C6G U7G C9A G41C | 0.013 |
| G5A C6G U7G C9A G41A | 0.0013 |
| G5A C6G U7G C9A G41U | 0.000489 |
| G5A C6G U7G C9A C44U A45U | 0.000761 |
| G5A C6G U7G C9A C44U A45C | 0.00286 |
| G5A C6G U7G C9A C44U A45G | 0.00135 |
| G5A C6G U7G C9A G12C G13C | 0.00164 |
| G5A C6G U7G C9A G12C G13U | 0.000686 |
| G5A C6G U7G C9A G12C G13A | 0.00586 |

| Variant | exon inclusion enrichment index |
| --- | --- |
| G5A C6G U7G C9A C16G | 0.00149 |
| G5A C6G U7G C9A C16U | 0.000705 |
| G5A C6G U7G C9A C16A | 0.00192 |
| G5A C6G U7G C9A G33C | 0.00196 |
| G5A C6G U7G C9A G33A | 0.000879 |
| G5A C6G U7G C9A G33U | 0.000815 |
| G5A C6G U7G C9A G11U | 0.00542 |
| G5A C6G U7G C9A G11C | 0.00307 |
| G5A C6G U7G C9A G11A | 0.000945 |
| G5A C6G U7G C9A U10C G11A | 0.0011 |
| G5A C6G U7G C9A U10C G11C | 0.0142 |
| G5A C6G U7G C9A U10C G11U | 0.0108 |
| G5A C6G U7G C9A A40G G41C | 0.0252 |
| G5A C6G U7G C9A A40G G41A | 0.0007 |
| G5A C6G U7G C9A A40G G41U | 0.00052 |
| G5A C6G U7G C9A A47G G48U | 0.000624 |
| G5A C6G U7G C9A A47G G48C | 0.000801 |
| G5A C6G U7G C9A A47G G48A | 0.000837 |
| G5A C6G U7G C9A G43A | 0.00629 |
| G5A C6G U7G C9A G43U | 0.00185 |
